The text below walks through data of patent US20170342144A1 (Sanofi, published 2017).

Changes are numbered by the printed parent chain.

The target of experiment [1] is T1, human TGFβ1 (human, UniProt P01137 279-390).
T1 construct: also called TGFβ1 homodimer
The experiment in a line: cell-based or functional assay.

The target in experiment [2] is T1, human TGFβ1. The experiment in a line: SPR (Biacore 3000), TGFβ1 amine-coupled to the chip, GC1008 IgG as analyte, 1:1 model, average of more than 25 assays. As for the experimental part: (§1) Additionally, the TGFβ isoform binding affinity of the GC1008 antibody was measured using a Biacore® 3000 (GE Healthcare) instrument. TGFβ1 and TGFβ2, produced in-house, were diluted to ˜1 μg/mL in 10 mM acetate, pH 4.5, and TGFβ3 (R&D Systems) was diluted to ˜2 μg/mL in 10 mM acetate, pH 4.0. Flowcells 2, 3, and 4 of a CMS sensor chip were covalently immobilized with 50 to 100 RU of TGFβ1, TGFβ2, and TGFβ3, respectively, using the standard amine coupling kit from GE Healthcare. Flowcell 1 was used as a control surface. […] The surface was regenerated with two 30 sec injections of 40 mM HCl at 75 μL/min. The sensorgrams were fit using a 1:1 binding model after subtraction of buffer and control flowcell refractive index changes with the BIA Evaluation Software Kit (GE Healthcare). The KD's shown in TABLE 6 are an average of more than 25 independent assays.
On the technique in general: In SPR one partner is held on a chip, and binding of the other changes the refractive index at the surface.

The target of experiment [3] is T2, human TGFβ2 (human, UniProt P61812 303-414).
T2 construct: also called TGFβ2 homodimer
T2 sequence: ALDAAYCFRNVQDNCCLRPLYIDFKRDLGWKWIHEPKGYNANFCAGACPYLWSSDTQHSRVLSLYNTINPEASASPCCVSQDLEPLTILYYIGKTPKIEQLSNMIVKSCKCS
Description: SPR (Biacore 3000), TGFβ2 amine-coupled to the chip, GC1008 IgG as analyte, 1:1 model, average of more than 25 assays. How it is done: as §1

Experiment [4] deals with T3, human TGFβ3 (human, UniProt P10600 301-412).
T3 sequence: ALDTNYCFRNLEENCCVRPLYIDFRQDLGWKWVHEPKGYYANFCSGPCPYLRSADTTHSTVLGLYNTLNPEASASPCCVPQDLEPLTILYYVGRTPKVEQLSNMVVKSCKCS
Description: SPR (Biacore 3000), TGFβ3 amine-coupled to the chip, GC1008 IgG as analyte, 1:1 model, average of more than 25 assays. How it is done: as §1

In experiment [5] the target is T3, human TGFβ3. Description: Biacore, top 2 concentrations only (90, 30 nM), 1:1 global fit, vs wt GC1008. As for the experimental part: (§2) In FIG. 6C, seventeen mutants were selected and scaled up to produce sufficient amount of purified protein for KD (equilibrium constant=kd/ka) analysis by Biacore. Multiple concentrations (90, 30, 10 and 3.33 nM) were used in duplicate on the 150 RU level TGFβ1, 2, and 3 immobilized surfaces. KD was calculated using global curve fitting analysis for a 1-to-1 Langmuir binding model. The experimental data from all four concentrations were used for calculation except for I54N and I54R mutants, where only the top 2 concentrations were used. The fold changes in KD were compared to the fold changes in kd (off rate) presented in FIG. 6B, and a heat map was generated for visualization. Similar fold changes were observed from the two data sets, confirming the validity of using kd as a parameter for screening of 155 single mutants as shown in FIG. 6B.

Experiment [6] addresses T2, human TGFβ2. Described as above. How it is done:
as §2

Experiment [7] addresses T1, human TGFβ1. The experiment is described as above. As for the experimental part:
as §2

Experiment [8] has as its target T3, human TGFβ3. Description: Biacore off-rate vs wt GC1008. From the text:
(§3) Plasmids encoding either the GC1008 heavy chain or light chain were used as a template in PCR-based mutagenesis reactions. Mutations to the encoding DNA were made to create 155 single amino acid substitutions of the encoded heavy chain amino acid sequence and one single amino acid substitution of the encoded light chain amino acid sequence. A QuikChange® Lightning Site-Directed Mutagenesis kit (Agilent Technologies, Santa Clara Calif.) was used according to the manufacturer's instructions to create DNA mutations using a set of forward and reverse primers, either designed for a specific amino acid or for all 20 amino acids with a degenerate codon (NNK). After sequencing confirmation, identified mutant DNA was paired with a wild-type light or heavy chain DNA for transfection into an Expi293F™ host cell suspension (Life Techonologies Corp., Grand Island, N.Y.). At 4 days post-transfection, conditioned media (1 mL) was harvested and purified using a 1 mL Protein A PhyTip® column (PhyNexus, Inc., San Jose, Calif.) and a PureSpeed™ 12-channel pipette (Rainin Instrument LLC, Oakland, Calif.). Purified variant antibody samples were analyzed in duplicate on a Biacore® 3000 (GE Healthcare) at 50 nM concentrations, using the 100 RU level TGFβ1, 2, and 3 immobilized surfaces. The off-rate (kd) of the variants was divided by the kd of the wild-type control to obtain the fold change in the kd. […] A heat map was generated to visualize the results. Variants that completely lost affinity for TGFβ were shown in red without numbers.

Experiment [9] has as its target T2, human TGFβ2. The experiment in a line: Biacore off-rate vs wt GC1008.
Excerpt: as §3

In experiment [10] the target is T1, human TGFβ1. The experiment in a line: Biacore off-rate vs wt GC1008.
Excerpt: as §3

Experiment [11] has as its target T3, human TGFβ3. The experiment in a line: Biacore off-rate vs wt GC1008, 50 nM. The essentials:
(§4)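 Surface plasmon resonance on a Biacore 3000 measured how fast purified antibody variants dissociated from TGFβ isoforms immobilized at about 100 RU. Variants carried single heavy- or light-chain substitutions and were produced by transient Expi293F transfection with Protein A cleanup. Samples at 50 nM were tested in duplicate, and each variant kd was divided by the wild-type control kd to give fold change.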

The target of experiment [12] is T2, human TGFβ2. The experiment in a line: Biacore off-rate vs wt GC1008, 50 nM. Summed up: as §4
Experiment [13] concerns the target T1, human TGFβ1. Description: Biacore off-rate vs wt GC1008, 50 nM. The essentials:
as §4

Usually Kd stands for the equilibrium constant for the complex coming apart. The low end stands for tighter binding, the high end for weaker binding.

T1 sequence (P01137 279-390 limits assumed): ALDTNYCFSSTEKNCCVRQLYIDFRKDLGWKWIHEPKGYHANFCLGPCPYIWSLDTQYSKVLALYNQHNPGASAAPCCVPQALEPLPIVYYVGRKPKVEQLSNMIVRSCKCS

1D11.16 (antibody) showed a % neutralization in MLEC proliferation assay at 91 pM antibody in experiment [1] of 12%.

B1: GC1008 (antibody, human IgG4, V domains shown)
VH: QVQLVQSGAEVKKPGSSVKVSCKASGYTFSSNVISWVRQAPGQGLEWMGGVIPIVDIANYAQRFKGRVTITADESTSTTYMELSSLRSEDTAVYYCASTLGLVLDAMDYWGQGTLVTVSS
VL: ETVLTQSPGTLSLSPGERATLSCRASQSLGSSYLAWYQQKPGQAPRLLIYGASSRAPGIPDRFSGSGSGTDFTLTISRLEPEDFAVYYCQQYADSPITFGQGTRLEIK
notes: also called GC1008 antibody; wild-type control
In the case of B1, the Kd was determined as 1.7 nM in experiment [2], 3 nM in experiment [3] and 2 nM in [4].

B2: I54R (antibody, V domains shown)
VH: B1 VH with I54R
VL: B1 VL
notes: GC1008 IgG4 variant
Turning to B2, the “KD mutant/KD wt” value in [5] came to 11.4; in experiment [6] it was 5.3; in experiment [7], 11. Further, the kd mutant/kd wt in [8] worked out at 4.8; in experiment [9] it was 5.2; in experiment [10], 7.6. The kd var/kd wt in [11] was determined as 4.8; in experiment [12], 5.2; in experiment [13] it was 7.6.

B3: I54N (antibody, V domains shown)
VH: B1 VH with I54N
VL: B1 VL
notes: GC1008 IgG4 variant
Regarding B3, the “KD mutant/KD wt” value in experiment [5] is 13.1; in [6], 4.5; in experiment [7], 7. Moreover, the kd mutant/kd wt in experiment [8] was 4.3; in experiment [9], 2.4; in experiment [10], 4.9. In addition, the kd var/kd wt in experiment [11] worked out at 4.3; in [12] it was 2.4; in [13], 4.9.
